Test results: patent publication US20130040882A1, “USE OF FIBROBLAST GROWTH FACTOR FRAGMENTS” (NOVARTIS AG, priority 2003, published 2013)
Several values for one entry are separate records, joined by “and”; a condition that tells them apart may be missing. Equal values may be shown once. Read-outs that look alike come from different tables or passages of the source.

Tested on: transcript levels in organs
Type: in vivo, cynomolgus monkey

B1: FGF23CTP: unique 75-mer COOH-terminal peptide of FGF-23, SEQ ID NO: 2 (peptide, listed as Homo sapiens)
chain: HTRSAEDDSERDPLNVLKPRARMTPAPASCSQELPSAEDNSPMASDPLGVVRGGRVNTHAGGTGPEGCRPFAKFI
Gene expression level after 2 weeks, mean: EGF-response factor 1 (AV node): 1,819.7 | Gene expression level after 2 weeks, mean: Endothelial differentiation receptor 6 (AV node): 306.9 | Gene expression level after 2 weeks, mean: FLT receptor tyrosine kinase 1 (AV node): 120.1 | Gene expression level after 2 weeks, mean: Insulin-like growth factor II (AV node): 565.275 | Gene expression level after 2 weeks, mean: Insulin-like growth factor binding protein 2 (AV node): 880.75 | Gene expression level after 2 weeks, mean: Vascular endothelial growth factor-A (VEGFA) (AV node): 363.7 | Gene expression level after 2 weeks, mean: Activin A receptor type II (Adrenal): 58.5 | Gene expression level after 2 weeks, mean: Bone morphogenetic protein 1 (Adrenal): 210.6 | Gene expression level after 2 weeks, mean: Bone morphogenetic protein receptor, type II (Adrenal): 101.25 | Gene expression level after 2 weeks, mean: Cdk-inhibitor 1A p21 (Cip1) (Adrenal): 51.75 | Gene expression level after 2 weeks, mean: E2F-5 (Adrenal): 39.6 | Gene expression level after 2 weeks, mean: FGF receptor-1 (Adrenal): 624.2 | Gene expression level after 2 weeks, mean: FLK1 receptor tyrosine kinase (Adrenal): 42.7 | Gene expression level after 2 weeks, mean: VE-cadherin (Adrenal): 110.2 | Gene expression level after 2 weeks, mean: Colony-stimulating factor-1 (B marrow): 981.3 | Gene expression level after 2 weeks, mean: Insulin-like growth factor II (B marrow): 209.5 | Gene expression level after 2 weeks, mean: Angiopoietin-1 (Bone Marrow): 123.2 | Gene expression level after 2 weeks, mean: Cyclin E2 (Bone Marrow): 257 | Gene expression level after 2 weeks, mean: E2F dimerization partner 2 (DP2) (Bone Marrow): 1222 | Gene expression level after 2 weeks, mean: Endothelial differentiation receptor 4 (Bone Marrow): 494.8 | Gene expression level after 2 weeks, mean: Mdm2 (Bone Marrow): 20 | Gene expression level after 2 weeks, mean: TEK tyrosine kinase, angiopoietin receptor (Bone Marrow): 52.7 | Gene expression level after 2 weeks, mean: Bone morphogenetic protein 2A (Duodenum): 55.3 | Gene expression level after 2 weeks, mean: Cdk-inhibitor p57KIP2 (KIP2) (Duodenum): 138.6 | Gene expression level after 2 weeks, mean: Cyclin I (Duodenum): 900.6 | Gene expression level after 2 weeks, mean: FLT receptor tyrosine kinase 1 (Duodenum): 70.7 | Gene expression level after 2 weeks, mean: Farnesol receptor HRR-1 (Duodenum): 53.1 | Gene expression level after 2 weeks, mean: Cyclin-dependent kinase 5 (Hippocampus): 118.7 | Gene expression level after 2 weeks, mean: E2F-4 (Hippocampus): 153.4 | Gene expression level after 2 weeks, mean: Neuregulin 1 (Hippocampus): 86.075 | Gene expression level after 2 weeks, mean: Cyclin D3 (Muscle): 149.2 | Gene expression level after 2 weeks, mean: E2F-4 (Muscle): 643.8 | Gene expression level after 2 weeks, mean: Endothelial differentiation receptor 6 (Muscle): 181.9 | Gene expression level after 2 weeks, mean: Insulin-like growth factor I (Muscle): 107.65 | Gene expression level after 2 weeks, mean: Placental growth factor (Muscle): 91.4 | Gene expression level after 2 weeks, mean: Retinoid X receptor-gamma (Muscle): 580.9 | Gene expression level after 2 weeks, mean: Transforming growth factor β2 (Muscle): 58.3 | Gene expression level after 2 weeks, mean: p53 binding protein (Muscle): 138.7 | Gene expression level after 2 weeks, mean: Activin A receptor type II (ROHY): 54.9 | Gene expression level after 2 weeks, mean: Angiopoietin-1 (ROHY): 162.5 | Gene expression level after 2 weeks, mean: Brain-specific angiogenesis inhibitor 1 (MAS5) (ROHY): 225.1 | Gene expression level after 2 weeks, mean: Cdk-inhibitor p19 (ROHY): 267.8 | Gene expression level after 2 weeks, mean: Colony-stimulating factor-1 (ROHY): 802.5 | Gene expression level after 2 weeks, mean: Cyclin A/CDK2-associated p19 (Skp1) (ROHY): 1069.6 | Gene expression level after 2 weeks, mean: Cyclin D2 (ROHY): 197.1 | Gene expression level after 2 weeks, mean: Cyclin-dependent kinase 4 (ROHY): 197.6 | Gene expression level after 2 weeks, mean: E2F-4 (ROHY): 245.9 | Gene expression level after 2 weeks, mean: EPHB2v protein-tyrosine kinase (ROHY): 119.1 | Gene expression level after 2 weeks, mean: Epidermal growth factor receptor (ROHY): 103.1 | Gene expression level after 2 weeks, mean: FGF receptor-1 (ROHY): 932.4 | Gene expression level after 2 weeks, mean: Growth differentiation factor 1 (ROHY): 1,410.2 | Gene expression level after 2 weeks, mean: RalGDS/AF-6 (inhibitor of Cyclin D1) (ROHY): 300.5 | Gene expression level after 2 weeks, mean: Retinoblastoma 1 (ROHY): 467.9 | Gene expression level after 2 weeks, mean: Retinoblastoma binding protein 4 (ROHY): 164 | Gene expression level after 2 weeks, mean: Retinoid X receptor-beta (ROHY): 106.925 | Gene expression level after 2 weeks, mean: S-phase response (cyclin-related) (ROHY): 176 | Gene expression level after 2 weeks, mean: Transforming growth factor β3 (ROHY): 88.4 | Gene expression level after 2 weeks, mean: Tumour necrosis factor receptor-2 (ROHY): 126.4 | Gene expression level after 2 weeks, mean: VEGFB (ROHY): 626.2 | Gene expression level after 2 weeks, mean: Vascular endothelial growth factor-A (VEGFA) (ROHY): 326.175 | Gene expression level after 2 weeks, mean: p53 binding protein (ROHY): 154.7 | Gene expression level after 2 weeks, mean: S-phase response (cyclin-related) (Re atrium): 159.1 | Gene expression level after 2 weeks, mean: Activin A receptor type II (Retina): 34.1 | Gene expression level after 2 weeks, mean: Brain-specific angiogenesis inhibitor 2 (Retina): 153.2 | Gene expression level after 2 weeks, mean: Cyclin D2 (Retina): 132 | Gene expression level after 2 weeks, mean: Insulin-like growth factor binding protein 2 (Retina): 807.9 | Gene expression level after 2 weeks, mean: Cdk-inhibitor p57KIP2 (KIP2) (Thymus): 247.9 | Gene expression level after 2 weeks, mean: FGF receptor-1 (Thymus): 153.2 | Gene expression level after 2 weeks, mean: TNFR-related death receptor-3 (cynomolgus monkey, in vivo): 82.4 | Gene expression level after 2 weeks, mean: TNFR-related death receptor-6 (cynomolgus monkey, in vivo): 144.65 and 98.8 | Gene expression level after 2 weeks, mean: Bone morphogenetic protein 10 (kidney): 138.6 | Gene expression level after 2 weeks, mean: Colony-stimulating factor-1 (kidney): 659.75 | Gene expression level after 2 weeks, mean: E2F-1 (kidney): 198.5 | Gene expression level after 2 weeks, mean: E2F-4 (kidney): 741.6 | Gene expression level after 2 weeks, mean: Neuregulin 1 (kidney): 150.725 | Gene expression level after 2 weeks, mean: Bone morphogenetic protein 10 (liver): 134.1 | Gene expression level after 2 weeks, mean: EPHB2v protein-tyrosine kinase (liver): 82.6 | Gene expression level after 2 weeks, mean: Endothelial differentiation receptor 4 (liver): 391.7 | Gene expression level after 2 weeks, mean: Farnesol receptor HRR-1 (liver): 383.3 | Gene expression level after 2 weeks, mean: Insulin-like growth factor I (liver): 1,055.4 | Gene expression level after 2 weeks, mean: Insulin-like growth factor II (liver): 606.9 | Gene expression level after 2 weeks, mean: Insulin-like growth factor binding protein 1 (liver): 1,517 | Gene expression level after 2 weeks, mean: Insulin-like growth factor binding protein 2 (liver): 3,858.6 | Gene expression level after 2 weeks, mean: 14-3-3 protein tau (rostral hypothalamus): 1,748.5 | Gene expression level after 2 weeks, mean: Amyloid beta precursor protein (cytoplasmic tail)-binding protein 2 (rostral hypothalamus): 191.3 | Gene expression level after 2 weeks, mean: Anion exchanger (rostral hypothalamus): 844.5 | Gene expression level after 2 weeks, mean: Axl (rostral hypothalamus): 60.3 | Gene expression level after 2 weeks, mean: BAX (rostral hypothalamus): 134.4 | Gene expression level after 2 weeks, mean: Bcl-2-binding protein Nip3 (rostral hypothalamus): 794.8 | Gene expression level after 2 weeks, mean: Bmi-1 homeobox gene repressor (rostral hypothalamus): 374.7 | Gene expression level after 2 weeks, mean: CMP-sialic acid transporter (rostral hypothalamus): 135.075 | Gene expression level after 2 weeks, mean: CREB binding protein (rostral hypothalamus): 93 | Gene expression level after 2 weeks, mean: Ca2+-ATPase (rostral hypothalamus): 174.4 | Gene expression level after 2 weeks, mean: Calcineurin A1 (rostral hypothalamus): 173.975 | Gene expression level after 2 weeks, mean: Cholecystokinin A receptor (rostral hypothalamus): 196 | Gene expression level after 2 weeks, mean: Connexin 43 (rostral hypothalamus): 184.5 | Gene expression level after 2 weeks, mean: Delta 2 catenin (rostral hypothalamus): 118 | Gene expression level after 2 weeks, mean: Erk3 (rostral hypothalamus): 409.5 | Gene expression level after 2 weeks, mean: FYN (rostral hypothalamus): 958.1 | Gene expression level after 2 weeks, mean: GDP dissociation inhibitor beta (rostral hypothalamus): 125.8 | Gene expression level after 2 weeks, mean: Glycogen synthase kinase 3 (rostral hypothalamus): 155.5 | Gene expression level after 2 weeks, mean: Hypoxia-inducible factor 1 alpha (rostral hypothalamus): 286.5 | Gene expression level after 2 weeks, mean: Inhibitor of DNA binding 4 (rostral hypothalamus): 67.6 | Gene expression level after 2 weeks, mean: JNK2 (rostral hypothalamus): 79.9 | Gene expression level after 2 weeks, mean: Jagged 1 (rostral hypothalamus): 70.3 | Gene expression level after 2 weeks, mean: Janus kinase 1 (rostral hypothalamus): 43.3 | Gene expression level after 2 weeks, mean: Mnb (Minibrain) (rostral hypothalamus): 446 | Gene expression level after 2 weeks, mean: Myelin oligodendrocyte glycoprotein (rostral hypothalamus): 62.7 | Gene expression level after 2 weeks, mean: Myosin regulatory light chain (rostral hypothalamus): 177.2 | Gene expression level after 2 weeks, mean: NIPSNAP2 (glioblastoma co-amplified) (rostral hypothalamus): 118.7 | Gene expression level after 2 weeks, mean: Na,K-ATPase (rostral hypothalamus): 1,453.2 | Gene expression level after 2 weeks, mean: Neural cell adhesion molecule 1 (rostral hypothalamus): 988.6 | Gene expression level after 2 weeks, mean: Neurofibromin (rostral hypothalamus): 144 | Gene expression level after 2 weeks, mean: Oligodendrocyte myelin glycoprotein OMGP (rostral hypothalamus): 773.5 | Gene expression level after 2 weeks, mean: PKR Interferon-inducible (rostral hypothalamus): 128.25 | Gene expression level after 2 weeks, mean: Phosphodiesterase 4B (rostral hypothalamus): 60.6 | Gene expression level after 2 weeks, mean: Phosphoinositide 3-kinase (rostral hypothalamus): 241.5 | Gene expression level after 2 weeks, mean: Phosphoinositide-3-kinase, catalytic, delta polypeptide (rostral hypothalamus): 241.5 | Gene expression level after 2 weeks, mean: Phospholipase C (rostral hypothalamus): 72.1 | Gene expression level after 2 weeks, mean: Pim1 (rostral hypothalamus): 327.5 | Gene expression level after 2 weeks, mean: Pinin, Desmosome associated protein (rostral hypothalamus): 119.7 | Gene expression level after 2 weeks, mean: RAB1 (rostral hypothalamus): 143.9 | Gene expression level after 2 weeks, mean: RAB5 (rostral hypothalamus): 809.8 | Gene expression level after 2 weeks, mean: RAB11A (rostral hypothalamus): 344.9 | Gene expression level after 2 weeks, mean: RAB11B (rostral hypothalamus): 71.2 | Gene expression level after 2 weeks, mean: RAS p21 protein activator (rostral hypothalamus): 163 | Gene expression level after 2 weeks, mean: RNP24 (rostral hypothalamus): 558.2 | Gene expression level after 2 weeks, mean: Reticulon 4 (rostral hypothalamus): 1,309.2 | Gene expression level after 2 weeks, mean: Retinoic acid receptor (rostral hypothalamus): 110 | Gene expression level after 2 weeks, mean: Ribosomal protein kinase B (RSK-B) (rostral hypothalamus): 120 | Gene expression level after 2 weeks, mean: SFRS protein kinase 2 (rostral hypothalamus): 205.8 | Gene expression level after 2 weeks, mean: SNARE (rostral hypothalamus): 55.4 | Gene expression level after 2 weeks, mean: STAT1 (rostral hypothalamus): 119.3 | Gene expression level after 2 weeks, mean: Sodium/hydrogen exchanger (rostral hypothalamus): 785.5 | Gene expression level after 2 weeks, mean: Sphingomyelinase (rostral hypothalamus): 259.5 | Gene expression level after 2 weeks, mean: TYRO3 (rostral hypothalamus): 163.1 | Gene expression level after 2 weeks, mean: TrkB (rostral hypothalamus): 40.8 | Gene expression level after 2 weeks, mean: Tropomyosin 2 (beta) (rostral hypothalamus): 131.6 | Gene expression level after 2 weeks, mean: Tropomyosin 4 (rostral hypothalamus): 140.6 | Gene expression level after 2 weeks, mean: c-abl (rostral hypothalamus): 119.4 | Gene expression level after 2 weeks, mean: c-raf (rostral hypothalamus): 327.5 | Gene expression level after 2 weeks, mean: c-yes (rostral hypothalamus): 64.7 | Gene expression level after 2 weeks, mean: RalGDS/AF-6 (inhibitor of Cyclin D1) (second line, organ cell empty (below ROHY)): 354.5
